Reference: patent US20120277164A1 (IMPERIAL INNOVATIONS, published 2012)
One block for each molecule: values may come before it. Square brackets hold non-standard residues; d marks the D form. * marks the point of attachment. Fmoc = O=C(OCC1c2ccccc2-c2ccccc21)*; Cbz = O=C(OCc1ccccc1)*; Bz = O=C(c1ccccc1)*; βAla = NCCC(=O)O

Columns and labels:
[1] = target: T1, Gadd45β/MKK7 complex (biotin-hGadd45β with coated GST-MKK7, ELISA format) (human) (UniProt O75293); assay: competition ELISA; coated MKK7 42 nM, biotin-hGadd45β 21 nM, competitor 42 nM nominal
T1 sequence (biotinylated (sites not stated), looked up) 1: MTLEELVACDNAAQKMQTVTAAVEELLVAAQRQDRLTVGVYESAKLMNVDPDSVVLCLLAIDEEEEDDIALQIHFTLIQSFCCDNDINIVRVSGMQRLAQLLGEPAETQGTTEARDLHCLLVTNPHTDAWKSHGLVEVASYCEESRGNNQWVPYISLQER
T1 sequence (biotinylated (sites not stated), looked up) 2: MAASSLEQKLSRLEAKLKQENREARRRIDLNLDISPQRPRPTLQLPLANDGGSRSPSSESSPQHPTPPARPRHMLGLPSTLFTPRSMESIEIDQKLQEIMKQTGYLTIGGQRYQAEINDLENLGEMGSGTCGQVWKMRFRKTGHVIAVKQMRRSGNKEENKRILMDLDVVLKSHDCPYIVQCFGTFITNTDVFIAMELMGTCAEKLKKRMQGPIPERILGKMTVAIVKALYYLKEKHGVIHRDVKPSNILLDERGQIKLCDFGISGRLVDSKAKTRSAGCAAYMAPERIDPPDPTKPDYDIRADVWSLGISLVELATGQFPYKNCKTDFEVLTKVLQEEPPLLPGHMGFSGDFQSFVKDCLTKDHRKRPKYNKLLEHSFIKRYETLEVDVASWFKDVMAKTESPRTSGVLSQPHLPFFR

[2] = target: T1, Gadd45β/MKK7 complex (biotin-hGadd45β with coated GST-MKK7, ELISA format) (human); assay: competition ELISA; coated GST-MKK7, biotin-hGadd45β; single dose
[3] = target: T1, Gadd45β/MKK7 complex (biotin-hGadd45β with coated GST-MKK7, ELISA format) (human); assay: derived from the in vitro ELISA competition IC50 (Gadd45β/MKK7)
[4] = target: T1, Gadd45β/MKK7 complex (biotin-hGadd45β with coated GST-MKK7, ELISA format) (human); assay: competition ELISA; coated GST-MKK7 42 nM, biotin-hGadd45β 21 nM
[5] = target: T2, Gadd45β/MKK7 complex (biotin-hGadd45β with coated GST-MKK7, ELISA format) (human, UniProt O75293 1-160; O14733 1-419, biotinylated (sites not given)); assay: competition ELISA; coated MKK7 42 nM, biotin-hGadd45β 21 nM, competitor 42 nM nominal
T2 construct: not shown: glutathione S-transferase (GST) fusion partner
T2 sequence (looked up) 1: T1 sequence (biotinylated (sites not stated), looked up) 1
T2 sequence (looked up) 2: T1 sequence (biotinylated (sites not stated), looked up) 2

[6] = target: T2, Gadd45β/MKK7 complex (biotin-hGadd45β …); assay: competition ELISA; coated GST-MKK7, biotin-hGadd45β; single dose
[7] = target: T2, Gadd45β/MKK7 complex (biotin-hGadd45β …); assay: as above; remark: listed apart in the source
[8] = target: T1, Gadd45β/MKK7 complex (biotin-hGadd45β with coated GST-MKK7, ELISA format) (human); assay: competition ELISA; coated MKK7, biotin-hGadd45β (FIG. 3C)
[9] = target: T1, Gadd45β/MKK7 complex (biotin-hGadd45β with coated GST-MKK7, ELISA format) (human); assay: ELISA competition assay: coated MKK7, soluble biotin-hGadd45β; peptide pre-incubated 48 hr with human serum at 37° C.; after 48-hr incubation with human serum at 37° C.
[10] = target: T1, Gadd45β/MKK7 complex (biotin-hGadd45β with coated GST-MKK7, ELISA format) (human); assay: competition ELISA after 48-hr pre-incubation of the peptide with human serum at 37 °C

% Inhibition of Gadd45β-MKK7 binding [1]: 26%
Molecule: Fmoc(βAla)2-YDHQ-NH2 as printed in row r19 of Table I

% Inhibition of Gadd45β-MKK7 binding [2]: 19%
Molecule: Fmoc-YDFQ-NH2

Ligand Efficiency [3]: -0.24
IC50 [4]: 157 pM
Molecule: mDTP3 (Ac-D-Tyr-D-Arg-D-Phe-NH2) (peptide)

% Inhibition of Gadd45β-MKK7 binding [2]: 8%
B1: Ac-YDHFLys(Z)-NH2 (peptide)
peptide: Ac-YDHFK(Cbz)-NH2
SMILES: CC(=O)N[C@@H](Cc1ccc(O)cc1)C(=O)N[C@@H](CC(=O)O)C(=O)N[C@@H](Cc1c[nH]cn1)C(=O)N[C@@H](Cc1ccccc1)C(=O)N[C@@H](CCCCNC(=O)OCc1ccccc1)C(N)=O

% Inhibition of Gadd45β-MKK7 binding [2]: 6%
B2: Ac-YERFLys(Z)-NH2 (peptide)
peptide: Ac-YERFK(Cbz)-NH2
SMILES: CC(=O)N[C@@H](Cc1ccc(O)cc1)C(=O)N[C@@H](CCC(=O)O)C(=O)N[C@@H](CCCNC(=N)N)C(=O)N[C@@H](Cc1ccccc1)C(=O)N[C@@H](CCCCNC(=O)OCc1ccccc1)C(N)=O

% Inhibition of Gadd45β-MKK7 binding [5]: 99%
Molecule: {Fmoc-βAla-βAla}-YDHF-NH2 (also called Fmoc-LTP1) [Fmoc(βAla)2-YDHF-NH2]

% Inhibition of Gadd45β-MKK7 binding [5]: 14%
B3: Fmoc(βAla)2-YDHM-NH2 (peptide)
peptide: {Fmoc-βAla-βAla}-YDHM-NH2
SMILES: CSCC[C@H](NC(=O)[C@H](Cc1c[nH]cn1)NC(=O)[C@H](CC(=O)O)NC(=O)[C@H](Cc1ccc(O)cc1)NC(=O)CCNC(=O)CCNC(=O)OCC1c2ccccc2-c2ccccc21)C(N)=O

% Inhibition of Gadd45β-MKK7 binding [5]: 15%
B4: Fmoc(βAla)2-YDHA-NH2 (peptide)
peptide: {Fmoc-βAla-βAla}-YDHA-NH2
SMILES: C[C@H](NC(=O)[C@H](Cc1c[nH]cn1)NC(=O)[C@H](CC(=O)O)NC(=O)[C@H](Cc1ccc(O)cc1)NC(=O)CCNC(=O)CCNC(=O)OCC1c2ccccc2-c2ccccc21)C(N)=O

% Inhibition of Gadd45β-MKK7 binding [5]: 63%
B5: Fmoc(βAla)2-YDHY-NH2 (peptide)
peptide: {Fmoc-βAla-βAla}-YDHY-NH2
SMILES: NC(=O)[C@H](Cc1ccc(O)cc1)NC(=O)[C@H](Cc1c[nH]cn1)NC(=O)[C@H](CC(=O)O)NC(=O)[C@H](Cc1ccc(O)cc1)NC(=O)CCNC(=O)CCNC(=O)OCC1c2ccccc2-c2ccccc21

% Inhibition of Gadd45β-MKK7 binding [5]: 0%
B6: Fmoc(βAla)2-YDHS-NH2 (peptide)
peptide: {Fmoc-βAla-βAla}-YDHS-NH2
SMILES: NC(=O)[C@H](CO)NC(=O)[C@H](Cc1c[nH]cn1)NC(=O)[C@H](CC(=O)O)NC(=O)[C@H](Cc1ccc(O)cc1)NC(=O)CCNC(=O)CCNC(=O)OCC1c2ccccc2-c2ccccc21

% Inhibition of Gadd45β-MKK7 binding [5]: 33%
B7: Fmoc(βAla)2-YDHL-NH2 (peptide)
peptide: {Fmoc-βAla-βAla}-YDHL-NH2
SMILES: CC(C)C[C@H](NC(=O)[C@H](Cc1c[nH]cn1)NC(=O)[C@H](CC(=O)O)NC(=O)[C@H](Cc1ccc(O)cc1)NC(=O)CCNC(=O)CCNC(=O)OCC1c2ccccc2-c2ccccc21)C(N)=O

% Inhibition of Gadd45β-MKK7 binding [5]: 0%
Molecule: {Fmoc-βAla-βAla}-YDHQ-NH2 [Fmoc(βAla)2-YDHQ-NH2]

% Inhibition of Gadd45β-MKK7 binding [5]: 44%
B8: Fmoc(βAla)2-YDHC-NH2 (peptide)
peptide: {Fmoc-βAla-βAla}-YDHC-NH2
SMILES: NC(=O)[C@H](CS)NC(=O)[C@H](Cc1c[nH]cn1)NC(=O)[C@H](CC(=O)O)NC(=O)[C@H](Cc1ccc(O)cc1)NC(=O)CCNC(=O)CCNC(=O)OCC1c2ccccc2-c2ccccc21

% Inhibition of Gadd45β-MKK7 binding [5]: 16%
B9: Fmoc(βAla)2-YDHP-NH2 (peptide)
peptide: {Fmoc-βAla-βAla}-YDHP-NH2
SMILES: NC(=O)[C@@H]1CCCN1C(=O)[C@H](Cc1c[nH]cn1)NC(=O)[C@H](CC(=O)O)NC(=O)[C@H](Cc1ccc(O)cc1)NC(=O)CCNC(=O)CCNC(=O)OCC1c2ccccc2-c2ccccc21

% Inhibition of Gadd45β-MKK7 binding [6]: 52%
% Inhibition of Gadd45β-MKK7 binding [7]: 23%
Molecule: Ac-YEHF-NH2 [Ac-YEHF-NH2]

% Inhibition of Gadd45β-MKK7 binding [5]: 0%
B10: Fmoc(βAla)2-YDHD-NH2 (peptide)
peptide: {Fmoc-βAla-βAla}-YDHD-NH2
SMILES: NC(=O)[C@H](CC(=O)O)NC(=O)[C@H](Cc1c[nH]cn1)NC(=O)[C@H](CC(=O)O)NC(=O)[C@H](Cc1ccc(O)cc1)NC(=O)CCNC(=O)CCNC(=O)OCC1c2ccccc2-c2ccccc21

% Inhibition of Gadd45β-MKK7 binding [5]: 40%
B11: Fmoc(βAla)2-YDHH-NH2 (peptide)
peptide: {Fmoc-βAla-βAla}-YDHH-NH2
SMILES: NC(=O)[C@H](Cc1c[nH]cn1)NC(=O)[C@H](Cc1c[nH]cn1)NC(=O)[C@H](CC(=O)O)NC(=O)[C@H](Cc1ccc(O)cc1)NC(=O)CCNC(=O)CCNC(=O)OCC1c2ccccc2-c2ccccc21

% Inhibition of Gadd45β-MKK7 binding [1]: 2%
B12: Fmoc(βAla)2-YDHR-NH2 (peptide)
peptide: {Fmoc-βAla-βAla}-YDHR-NH2
SMILES: N=C(N)NCCC[C@H](NC(=O)[C@H](Cc1c[nH]cn1)NC(=O)[C@H](CC(=O)O)NC(=O)[C@H](Cc1ccc(O)cc1)NC(=O)CCNC(=O)CCNC(=O)OCC1c2ccccc2-c2ccccc21)C(N)=O

IC50 [8]: 190 pM
B13: DTP2, Acetyl-(D-Tyr)-(D-Glu)-(D-Arg)-(D-Phe)-NH2 (peptide)
peptide: Ac-[dY][dE][dR][dF]-NH2
SMILES: CC(=O)N[C@H](Cc1ccc(O)cc1)C(=O)N[C@H](CCC(=O)O)C(=O)N[C@H](CCCNC(=N)N)C(=O)N[C@H](Cc1ccccc1)C(N)=O

% Inhibition of Gadd45β-MKK7 binding [2]: 7%
Molecule: Ac-AERF-NH2 [Ac-AERF-NH2]

IC50 [8]: 220 pM
B14: DTP1, Acetyl-(D-Tyr)-(D-Asp)-(D-His)-(D-Phe)-NH2 (peptide)
peptide: Ac-[dY][dD][dH][dF]-NH2
SMILES: CC(=O)N[C@H](Cc1ccc(O)cc1)C(=O)N[C@H](CC(=O)O)C(=O)N[C@H](Cc1c[nH]cn1)C(=O)N[C@H](Cc1ccccc1)C(N)=O

% Inhibition of Gadd45β-MKK7 binding [2]: 1%
Molecule: Bz-YDHQ-NH2 [Benzoic acid-YDHQ-NH2]

% Inhibition of Gadd45β-MKK7 binding [2]: 3%
Molecule: Cbz-YD(OMe)HQ-NH2 [Z-YD(OMe)HQ-NH2]

% Inhibition of Gadd45β-MKK7 binding [2]: 99%
Molecule: Ac-YDHQ-NH2 [Ac-YDHQ-NH2]

IC50 [9]: 190 pM
IC50 [10]: 190 pM
IC50 [4]: 220 pM
Molecule: Cbz-[dY][dD][dH][dF]-NH2 [Z-Tyr-Asp-His-Phe-NH2 (Z-DTP1)]

% Inhibition of Gadd45β-MKK7 binding [2]: 2%
B15: Ac-YDHQLys(Z)-NH2 (peptide)
peptide: Ac-YDHQK(Cbz)-NH2
SMILES: CC(=O)N[C@@H](Cc1ccc(O)cc1)C(=O)N[C@@H](CC(=O)O)C(=O)N[C@@H](Cc1c[nH]cn1)C(=O)N[C@@H](CCC(N)=O)C(=O)N[C@@H](CCCCNC(=O)OCc1ccccc1)C(N)=O

IC50 [9]: 180 pM
Ligand Efficiency [3]: -0.26
IC50 [10]: 180 pM
IC50 [4]: 190 pM
Molecule: Cbz-[dY][dE][dR][dF]-NH2 [Z-DTP2 (Z-D-Tyr-D-Glu-D-Arg-D-Phe-NH2)]

% Inhibition of Gadd45β-MKK7 binding [2]: 7%
Molecule: {3‑OH‑4MeO‑benzoic acid}-YDHQ-NH2 (not fully specified) [3-OH-4MeO-Benzoid acid-YDHQ-NH2]
